The source of these data is patent US20200123264A1 (Regeneron, published 2020).

The chains are these.
B1: H4H18466P2 (antibody, human IgG4, V domains shown)
VH: EVQLVESGGGLVQPGGSLRLSCTASGFTFSSYGLHWVRQAPGKGLEYVSSINHNGGSKYYADSVKGRFTISRDNSKNTLFLQMGSLKTEDMAVYYCARDLFLEWLFHGFDIWGQGTMVTVSS
VL: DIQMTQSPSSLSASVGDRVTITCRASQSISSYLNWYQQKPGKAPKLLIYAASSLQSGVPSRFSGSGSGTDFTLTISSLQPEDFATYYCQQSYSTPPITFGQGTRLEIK
notes: H4H prefix: human IgG4 Fc
B2: H4H18440P2 (antibody, human IgG4, V domains shown)
VH: QVQLVESGGGMVKPGGSLRLSCAASGFTFSDYYMSWIRQAPGKGLEWISHISITGSTIYYADSVKGRFTISRDNAKNSLYLEMNRLRDEDTAVYYCTRDEPDIVLVRYGMDVWGQGTTVTVSS
VL: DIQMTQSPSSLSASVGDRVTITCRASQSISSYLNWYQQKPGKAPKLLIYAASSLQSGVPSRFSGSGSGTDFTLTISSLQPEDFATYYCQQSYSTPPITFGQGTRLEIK
notes: H4H prefix: human IgG4 Fc
B3: H4H17322P2 (antibody, human IgG4, V domains shown)
VH: QLQLQESGPGLVKPSETLSLTCTVSGASISSSRFYGGWIRQPPGKGLEWIGDIYYSGNTYYNPSLQSRVTISVDTSKNQFSLKLSSVTAADTAVYYCARHLMITFGGLIVEGFDIWGQGTMVTVSS
VL: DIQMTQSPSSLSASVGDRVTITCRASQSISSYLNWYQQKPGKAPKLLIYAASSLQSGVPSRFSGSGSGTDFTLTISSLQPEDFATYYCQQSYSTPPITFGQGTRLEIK
notes: H4H prefix: human IgG4 Fc
B4: H4H18462P2 (antibody, human IgG4, V domains shown)
VH: EVQLVESGGDLVQPGRSLRLSCAASGFTFSSFAMSWVRQAPGRGLEWVSSLSDSGDNTYYADSVKGRFTISRDNSKNTLYLQMNNLRAEDTAVYYCAKDLFSGWLFHGFDVWGQGTMVTVSS
VL: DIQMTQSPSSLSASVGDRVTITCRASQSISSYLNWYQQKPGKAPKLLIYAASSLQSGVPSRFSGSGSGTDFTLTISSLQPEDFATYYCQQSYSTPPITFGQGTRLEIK
notes: H4H prefix: human IgG4 Fc
B5: H4H18439P2 (antibody, human IgG4, V domains shown)
VH: QLQLQESGPGLVKPSETLSLTCIVSGGDITSSSYYWNWIRQPPGKGLEWIGNIYYSGSTNYNPSLKSRVTISIDTSKSQFSLKLRSVTAADTAVYYCARLLRYFDWSKGYLDYWGQGTLVTVSS
VL: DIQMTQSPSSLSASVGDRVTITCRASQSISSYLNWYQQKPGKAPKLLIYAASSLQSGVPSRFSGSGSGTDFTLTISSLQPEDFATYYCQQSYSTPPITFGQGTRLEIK
notes: H4H prefix: human IgG4 Fc
B6: H4H18437P2 (antibody, human IgG4, V domains shown)
VH: QVQLVESGGGVVQPGRSLRLSCAASGFTFSSYGIHWVRQAPGKGLEWVAVISYDGNNKYYADSVKGRFTISRDNSKNTLYLQMNSLRAEDTAVYYCAKDLFLEWLFHGMGVWGQGTTVTVSS
VL: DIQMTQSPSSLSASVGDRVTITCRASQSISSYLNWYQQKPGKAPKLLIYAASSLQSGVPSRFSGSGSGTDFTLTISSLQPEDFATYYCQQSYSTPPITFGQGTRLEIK
notes: H4H prefix: human IgG4 Fc
B7: H4H18457P2 (antibody, human IgG4, V domains shown)
VH: EVQLVESGGSVVRPGESLRLSCAASGFTFDDYGMSWVRQAPGKGLEWVSGISWNGGITVYADSVKGRFTVSRDNAKNSLYLQMNSLRAEDTALYHCARARYGGADYWGQGTLVTVSS
VL: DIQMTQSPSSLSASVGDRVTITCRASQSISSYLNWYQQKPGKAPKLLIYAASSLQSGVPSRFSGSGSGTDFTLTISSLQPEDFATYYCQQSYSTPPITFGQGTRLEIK
notes: H4H prefix: human IgG4 Fc
B8: H4H18464P2 (antibody, human IgG4, V domains shown)
VH: QVQLVQSGPEVKKPGASVKVSCKGSGYTFSWYGISWIRQAPGHGLEWMGWISASSGNTRFAQKVQGRLTMTTDTSTSTAYMELRSLRSDDTAVYYCARTGTRPFDYWGQGTLVTVSS
VL: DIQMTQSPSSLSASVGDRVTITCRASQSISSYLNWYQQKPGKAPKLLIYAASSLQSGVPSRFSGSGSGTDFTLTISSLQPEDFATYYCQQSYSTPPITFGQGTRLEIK
notes: H4H prefix: human IgG4 Fc

The target of one assay is T1, human LEPR CRH1 (D1)-MMH (human, UniProt P48357 22-229, limits assumed).
T1 construct: domain: CRH1 (D1); Transiently expressed, captured from supernatant on anti-myc beads
T1 sequence (looked up): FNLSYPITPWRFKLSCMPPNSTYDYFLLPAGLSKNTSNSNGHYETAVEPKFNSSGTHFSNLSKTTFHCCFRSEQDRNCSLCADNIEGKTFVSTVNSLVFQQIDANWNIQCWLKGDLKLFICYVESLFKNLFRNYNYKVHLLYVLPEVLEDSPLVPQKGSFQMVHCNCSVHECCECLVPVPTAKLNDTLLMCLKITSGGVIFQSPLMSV
Kind of assay: Luminex, myc-captured LEPR protein on beads, Ab 5 µg/mL. As for the experimental part:
(§1) Aliquots of microspheres with immobilized anti-myc monoclonal antibodies, prepared as described above, were added individually to 1 mL of the each of these protein supernatants. The microspheres were gently mixed, incubated for two hours at 25° C., washed twice with 1 mL of DBPS, centrifuged to remove the supernatant and finally resuspended in 1 mL of DPBS buffer. Forty eight μL of anti-myc IgG coupled microspheres from individual reactions with full length human LEPR and with each of the human LEPR domain proteins were withdrawn and mixed together in 3.6 mL of PBS+20 mg/mL BSA+0.05% sodium azide (blocking buffer).
(§2) From this mixed pool, 75 μL of microspheres were plated per well on a 96 well filter plate (Millipore, Cat. No: MSBVN1250) and mixed with 25 μL of individual anti-human LEPR monoclonal antibodies (0.5 or 5 μg/mL), incubated for two hours at 25° C. and then washed twice with 200 μL of DPBS with 0.05% Tween 20 (washing buffer). […] After 30 minutes, the samples were washed twice with 200 μL of washing buffer and resuspended in 150 μL of wash buffer. The Median Fluorescence intensity (MFI) of the microspheres was measured in a Luminex Analyzer.
Consider B1, for which the “Luminex MFI” value is 15 MFI.

With B2, the “Luminex MFI” value amounted to 8 MFI.

For the molecule B3, the “Luminex MFI” value was found to be 14 MFI.

As to B4, the “Luminex MFI” value was determined as 5380 MFI.

For B5, the “Luminex MFI” value is 11 MFI.

Take B6: the “Luminex MFI” value worked out at 21 MFI.

As to B7, the “Luminex MFI” value came out at 13 MFI.

Take B8: the “Luminex MFI” value turned out to be 13 MFI.

For the next assay, the target named is T2, human LEPR FNIII-MMH (human, UniProt P48357 636-839, limits assumed).
T2 construct: domain: FNIII; Transiently expressed, captured from supernatant on anti-myc beads
T2 sequence (looked up): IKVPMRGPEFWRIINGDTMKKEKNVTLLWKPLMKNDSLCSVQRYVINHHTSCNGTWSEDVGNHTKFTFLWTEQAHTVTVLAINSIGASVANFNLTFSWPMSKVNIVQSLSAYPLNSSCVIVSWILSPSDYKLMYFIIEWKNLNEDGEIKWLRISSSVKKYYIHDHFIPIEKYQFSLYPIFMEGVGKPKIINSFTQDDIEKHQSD
The description is as above. As for the experimental part:
as §1, §2
B1: the “Luminex MFI” value came to 457 MFI.

Consider B2, for which the “Luminex MFI” value is 10 MFI.

For B3, the “Luminex MFI” value was found to be 23 MFI.

With B4, the “Luminex MFI” value came to 581 MFI.

For the molecule B5, the “Luminex MFI” value worked out at 13 MFI.

In the case of B6, the “Luminex MFI” value turned out to be 1590 MFI.

With B7, the “Luminex MFI” value was 1190 MFI.

As to B8, the “Luminex MFI” value amounted to 23 MFI.

For another assay, the target named is T3, human LEPR Ig-CRH2-FNIII-MMH (human, UniProt P48357 330-839, limits assumed).
T3 construct: domain: Ig-CRH2-FNIII; Transiently expressed, captured from supernatant on anti-myc beads
T3 sequence (looked up): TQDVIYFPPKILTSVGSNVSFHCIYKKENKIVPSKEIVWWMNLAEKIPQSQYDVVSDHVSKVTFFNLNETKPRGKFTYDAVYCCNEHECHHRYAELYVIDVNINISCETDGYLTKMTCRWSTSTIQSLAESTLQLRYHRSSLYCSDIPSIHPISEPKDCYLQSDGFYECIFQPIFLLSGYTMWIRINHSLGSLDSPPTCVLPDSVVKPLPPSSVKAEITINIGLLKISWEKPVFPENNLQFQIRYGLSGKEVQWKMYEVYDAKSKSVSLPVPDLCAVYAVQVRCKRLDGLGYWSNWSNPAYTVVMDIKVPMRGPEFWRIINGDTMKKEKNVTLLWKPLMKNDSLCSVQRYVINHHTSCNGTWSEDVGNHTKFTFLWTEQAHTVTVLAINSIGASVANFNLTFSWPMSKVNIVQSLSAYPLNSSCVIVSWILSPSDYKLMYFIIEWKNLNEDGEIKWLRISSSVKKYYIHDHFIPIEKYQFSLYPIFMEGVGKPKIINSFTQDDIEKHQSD
The assay is described as above. As for the experimental part: as §1, §2
Regarding B1, the “Luminex MFI” value turned out to be 11300 MFI.

For B2, the “Luminex MFI” value was found to be 32 MFI.

Consider B3, for which the “Luminex MFI” value was found to be 15100 MFI.

In the case of B4, the “Luminex MFI” value amounted to 14900 MFI.

Take B5: the “Luminex MFI” value came out at 43 MFI.

Turning to B6, the “Luminex MFI” value was 15600 MFI.

Take B7: the “Luminex MFI” value was 13200 MFI.

Take B8: the “Luminex MFI” value was found to be 15100 MFI.

Another assay has as its target T4, human LEPR CRH1 (D1,D2,D3)-MMH (human, UniProt P48357 22-427, limits assumed).
T4 construct: domain: CRH1-Ig (D1,D2,D3); Transiently expressed, captured from supernatant on anti-myc beads; also called CRH1-Ig (D1, D2, D3)
T4 sequence (looked up): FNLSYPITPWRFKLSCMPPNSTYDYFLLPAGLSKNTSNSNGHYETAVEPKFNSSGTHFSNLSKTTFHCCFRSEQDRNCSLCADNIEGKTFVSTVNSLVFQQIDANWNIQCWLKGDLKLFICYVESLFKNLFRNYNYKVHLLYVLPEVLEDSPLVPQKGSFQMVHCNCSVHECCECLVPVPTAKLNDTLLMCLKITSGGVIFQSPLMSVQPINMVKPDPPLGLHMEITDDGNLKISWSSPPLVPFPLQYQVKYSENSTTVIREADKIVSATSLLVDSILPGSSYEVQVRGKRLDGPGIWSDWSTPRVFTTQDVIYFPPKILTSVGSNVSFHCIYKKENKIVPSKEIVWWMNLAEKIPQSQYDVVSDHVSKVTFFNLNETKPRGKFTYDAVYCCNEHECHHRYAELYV
The assay is described as above. As for the experimental part:
as §1, §2
In the case of B2, the “Luminex MFI” value is 8240 MFI.

Regarding B3, the “Luminex MFI” value came to 31 MFI.

Regarding B4, the “Luminex MFI” value was determined as 3960 MFI.

For B5, the “Luminex MFI” value came to 8020 MFI.

As for B6, the “Luminex MFI” value is 34 MFI.

Turning to B7, the “Luminex MFI” value was found to be 31 MFI.

Turning to B8, the “Luminex MFI” value amounted to 5560 MFI.

For the next assay, the target named is T5, human LEPR Ig (D3)-MMH (human, UniProt P48357 340-427, limits assumed).
T5 construct: domain: Ig (D3); Transiently expressed, captured from supernatant on anti-myc beads
T5 sequence (looked up): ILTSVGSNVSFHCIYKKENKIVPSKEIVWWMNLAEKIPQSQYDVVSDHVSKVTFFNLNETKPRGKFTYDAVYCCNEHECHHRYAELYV
The assay is described as above. How it is done: as §1, §2
Regarding B1, the “Luminex MFI” value was determined as 26 MFI.

For B2, the “Luminex MFI” value amounted to 14 MFI.

For B3, the “Luminex MFI” value worked out at 26 MFI.

On to B4, for which the “Luminex MFI” value came out at 21 MFI.

For the molecule B5, the “Luminex MFI” value worked out at 18 MFI.

B6: the “Luminex MFI” value was 26 MFI.

With B7, the “Luminex MFI” value turned out to be 18 MFI.

The target in the next assay is T6, human LEPR CRH1 (D1,D2)-MMH (human, UniProt P48357 22-339, limits assumed).
T6 construct: domain: CRH1 (D1,D2); Transiently expressed, captured from supernatant on anti-myc beads
T6 sequence (looked up): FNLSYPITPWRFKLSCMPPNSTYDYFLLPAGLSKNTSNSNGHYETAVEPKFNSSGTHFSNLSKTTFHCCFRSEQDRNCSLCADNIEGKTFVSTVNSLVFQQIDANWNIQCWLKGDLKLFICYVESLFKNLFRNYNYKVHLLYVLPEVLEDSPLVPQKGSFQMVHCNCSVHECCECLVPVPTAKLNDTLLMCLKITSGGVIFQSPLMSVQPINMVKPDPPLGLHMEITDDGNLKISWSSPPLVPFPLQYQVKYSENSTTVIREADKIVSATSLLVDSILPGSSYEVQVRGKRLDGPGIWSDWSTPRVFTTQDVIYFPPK
The assay is described as above. As for the experimental part: as §1, §2
Turning to B1, the “Luminex MFI” value turned out to be 56 MFI.

With B2, the “Luminex MFI” value came out at 19300 MFI.

As to B3, the “Luminex MFI” value is 50 MFI.

Regarding B4, the “Luminex MFI” value stood at 5730 MFI.

As for B5, the “Luminex MFI” value worked out at 21200 MFI.

Regarding B6, the “Luminex MFI” value was found to be 82 MFI.

Regarding B7, the “Luminex MFI” value stood at 53 MFI.

For B8, the “Luminex MFI” value came to 59 MFI.
